What is called Kd is the constant that tells how readily two partners part at equilibrium. By koff is commonly meant the rate constant with which the complex falls apart. For orientation: kon means the second-order rate constant of association.

The target of experiment [1] is T1, recombinant human IL-13 (human, UniProt P35225 34-146).
T1 construct: also called biotinylated IL-13; rec human IL-13
In words: Biacore; mAb13.2 immobilized on the chip, dose range of human IL-13 passed over. As for the experimental part: (§1) Several measures were taken to confirm that the murine monoclonal antibody isolated in Example 1.1, i.e., mAb13.2, binds with high affinity and specificity to human IL-13. First, BIACORE™ analyses of three monoclonal antibodies to human IL-13 (mAb13.2, mAb13.4, and mAb13.9) were performed using a 69 RU streptavidin chip to which biotinylated IL-13 had been immobilized. […] Upon buffer exchange, dissociation was slow (FIG. 1). Second, BIACORE™ analysis of mAb13.2 was performed using a Biacore chip to which mAb13.2 had been immobilized. Different concentrations of IL-13 were passed over the chip. Again, rapid binding and slow dissociation was shown (FIG. 2). Third, analysis by ELISA determined that mAb13.2 bound to all forms of human IL-13 tested, including native IL-13 derived from cord blood T cells (FIG. 3). Plates were coated with anti-FLAG™ M2 antibody. The binding of FLAG™-human IL-13 was detected with biotinylated mAb13.2 and streptavidin-peroxidase. […] There was no detectable binding of mAb13.2 to recombinant murine IL-13 (FIG. 3). To confirm the results found by ELISA, the monoclonal antibody, mAb13.2, was coated onto a Biacore chip, and solutions containing recombinant human IL-13 or a polymorphic form of IL-13 (ARG variant), which is expressed at high frequency in patients suffering from asthma (Heinzmann et al. (2000) Hum. Mol. Genet. 9:594), were passed over the chip.

The target of experiment [2] is T1, recombinant human IL-13. In words: Biacore; biotinylated IL-13 immobilized on a 69 RU streptavidin (SA) chip, antibody passed over the chip. The protocol: as §1
Background: SPR reads the build-up and loss of mass on a sensor chip optically.

In experiment [3] the target is T2, recombinant murine IL-13 (murine, UniProt P20109 19-131, limits assumed).
T2 sequence (looked up): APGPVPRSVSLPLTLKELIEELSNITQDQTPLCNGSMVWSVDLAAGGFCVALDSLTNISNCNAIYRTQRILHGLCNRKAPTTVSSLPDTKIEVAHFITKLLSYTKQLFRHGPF
In words: competition ELISA; FLAG-human IL-13 captured on anti-FLAG M2 plates and detected with biotinylated mAb13.2 and streptavidin-peroxidase; soluble IL-13 added as competitor of FLAG-human IL-13. As for the experimental part: as §1
For orientation: In an ELISA, binding on a coated surface is turned into a signal by an enzyme label.

The target in experiment [4] is T3, FLAG-human IL-13 (human, UniProt P35225 34-146).
T3 construct: Captured on ELISA plates by anti-FLAG M2 antibody; order of tag and IL-13 is not certain; also called IL-13-FLAG; human IL-13-FLAG; not shown: FLAG tag
T3 sequence (P35225 other isoform, or with tags, fused parts or gaps limits assumed): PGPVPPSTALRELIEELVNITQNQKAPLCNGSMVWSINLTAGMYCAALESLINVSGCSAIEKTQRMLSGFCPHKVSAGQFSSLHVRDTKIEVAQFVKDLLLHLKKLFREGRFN
In words: competition ELISA; human IL-13-FLAG immobilized with anti-FLAG antibody, detected with biotinylated mAb13.2; unlabeled antibody varied. The protocol: The chimeric antibody, ch13.2, was tested for IL-13 binding. […] Chimeric antibody, ch13.2, was able to competitively bind to IL-13 similarly to mAb13.2 (FIG. 14A). In another test, human peripheral blood monocytes were treated overnight with IL-13 to induce CD23 expression in the presence of various concentrations of mouse mAb13.2 or ch13.2.

In experiment [5] the target is T1, recombinant human IL-13. As to the kind of experiment: cell-based or functional assay.
Experiment [6] has as its target T1, recombinant human IL-13. As to the kind of experiment: competition ELISA; competitor mAb13.2.
The target in experiment [7] is T3, FLAG-human IL-13. In words: competition ELISA; IL-13-FLAG immobilized with anti-FLAG antibody, detected with biotinylated mAb13.2; unlabeled antibody varied.
Experiment [8] addresses T1, recombinant human IL-13. In words: Biacore; h13.2v2 immobilized on the chip, dose range of human IL-13 passed over.
Experiment [9] deals with T4, IL-13 captured by IL-13Rα2 on the surface of A375 human melanoma cells (human, UniProt Q14627 27-380).
T4 construct: whole, on cells; Recombinant human IL-13 (3 ng/ml, or 10 ng/ml for ADCC) contacted to A375 cells; also called IL-13-loaded A375 cells; cells expressing IL-13Rα2
T4 sequence (chain, as listed by the source, chain 1 of 2): as the sequence (P35225 other isoform, or with tags, fused parts or gaps limits assumed) above
T4 sequence (Q14627 27-380, chain 2 of 2): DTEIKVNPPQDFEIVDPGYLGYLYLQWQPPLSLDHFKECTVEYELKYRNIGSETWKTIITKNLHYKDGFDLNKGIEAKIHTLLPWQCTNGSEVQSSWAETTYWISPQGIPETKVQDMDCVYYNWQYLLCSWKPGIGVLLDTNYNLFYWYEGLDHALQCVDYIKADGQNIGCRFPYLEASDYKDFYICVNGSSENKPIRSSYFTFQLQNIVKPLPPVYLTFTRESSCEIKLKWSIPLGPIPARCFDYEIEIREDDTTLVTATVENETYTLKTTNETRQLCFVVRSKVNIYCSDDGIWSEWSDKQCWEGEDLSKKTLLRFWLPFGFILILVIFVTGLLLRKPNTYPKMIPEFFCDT
In words: flow cytometry; A375 cells pre-incubated with 3 ng/ml hu IL13, stained with biotinylated h13.2v2. The source says: The cell signaling form of the IL-13 receptor, which includes the IL-13Rα1 and IL-4Rα polypeptides, is found on the surface of cell types that respond to the cytokine. IL-13Rα2 is not typically expressed on the surface of IL-13-responsive cells, but has been reported on tumors of the brain, head, and neck (Kawakami et al. (2003) Clin. Cancer Res. 9:6381-8; Mintz et al. (2002) Neoplasia 4:388-99; Liu et al. (2000) Cancer Immunol. Immunother. 49:319-24). IL-13Rα2 expression may also be induced on IFNγ-treated primary human monocytes (Daines et al. (2002) J. Biol. Chem. 277:10387-93), or TNFα- or IL-13-treated primary human fibroblasts (Yoshikawa et al. (2003) Biochem. Biophys. Res. Commun. 312:1248-55). This receptor is not competent to mediate signaling responses to IL-13 (Kawakami et al. (2001) Blood 97:2673-9), but instead appears to act as a decoy receptor, competing for productive IL-13 interactions with IL-13Rα1 (Feng et al. (1998) Lab. Invest. 78:591-602). IL-13Rα2 has a high affinity for IL-13 (Andrews et al. (2002) J. Biol. Chem. 277:46073-8), and appears to interact primarily with the C-terminal region of the cytokine (Madhankumar et al. (2002) J. Biol. Chem. 277:43194-205), which is not predicted to include the h13.2v2 binding site. Therefore, it was examined whether h13.2v2 could interact with IL-13 captured by IL-13Rα2 on the cell surface. […]
On the technique in general: In flow cytometry, cells or beads pass a laser one at a time.

T1 sequence (P35225 other isoform, or with tags, fused parts or gaps): as the sequence (P35225 other isoform, or with tags, fused parts or gaps limits assumed) above

B1: murine monoclonal antibody mAb13.2 (antibody, V domains shown)
VH: EVKLVESGGGLVKPGGSLKLSCAASGFTFISYAMSWVRQTPEKRLEWVASISSGGNTYYPDSVKGRFTISRDNARNILYLQMSSLRSEDTAMYYCARLDGYYFGFAYWGQGTTVTVSS
VL: DIVLTQSPASLAVSLGQRATISCKASESVDNYGKSLMHWYQQKPGQSPKLLIYRASNLESGIPARFSGSGSRTDFTLTINPVEADDVATYYCQQSNEDPWTFGGGTKLEIK
notes: also called mouse mAb13.2; biotinylated mAb13.2
Take B1: in experiment [1], the Ka came to 2.1e+09 M⁻¹ and the Kd was 470 pM. In experiment [2], the Ka came out at 4e+10 M⁻¹, the dissociation constant Kd was 25 pM, the koff is 2.7e-06 s⁻¹ and the kon was 110000 M⁻¹ s⁻¹. Besides, the binding result in experiment [3] is listed as “no binding (tested: about 3000 ng/ml)”. In addition, the “IC50 (read off the curve)” value in experiment [4] was roughly 1000 pM. Besides, the “IC50 (read off the curve), TF1 proliferation” value in [5] was roughly 300 pM.

B2: chimeric mAb13.2 antibody (ch13.2) (antibody, human IgG1, kappa, V domains shown)
VH: EVKLVESGGGLVKPGGSLKLSCAASGFTFISYAMSWVRQTPEKRLEWVASISSGGNTYYPDSVKGRFTISRDNARNILYLQMSSLRSEDTAMYYCARLDGYYFGFAYWGQGTTVTVSS
VL: DIVLTQSPASLAVSLGQRATISCKASESVDNYGKSLMHWYQQKPGQSPKLLIYRASNLESGIPARFSGSGSRTDFTLTINPVEADDVATYYCQQSNEDPWTFGGGTKLEIKR
With B2, the “IC50 (read off the curve)” value in experiment [4] is roughly 1000 pM.

B3: partially humanized mAb13.2 (h13.2v1) (antibody, human IgG1, kappa, V domains shown)
VH: EVKLVESGGGLVQPGGSLRLSCAASGFTFISYAMSWVRQAPGKGLEWVASISSGGNTYYPDSVKGRFTISRDNAKNSLYLQMNSLRAEDTAVYYCARLDGYYFGFAYWGQGTLVTVSS
VL: DIQLTQSPSSLSASVGDRVTITCKASESVDNYGKSLMHWYQQKPGKAPKLLIYRASNLESGVPSRFSGSGSRTDFTLTISSLQPEDFATYYCQQSNEDPWTFGGGTKVEIKR
notes: Human IgG1 mutated (L234A/G237A), human kappa; also called hu13.2 V1
For the molecule B3, the binding result in [6] and in [7] was “binds” in each case.

B4: fully humanized mAb13.2 (h13.2v3) (antibody, human IgG1, kappa, V domains shown)
VH: EVQLVESGGGLVKPGGSLRLSCAASGFTFISYAMSWVRQAPGKGLEWVSSISSGGNTYYPDSVKGRFTISRDNAKNSLYLQMNSLRAEDTAVYYCARLDGYYFGFAYWGQGTTVTVSS
VL: DIVLTQSPASLAVSPGQRATITCKASESVDNYGKSLMHWYQQKPGQPPKLLIYRASNLESGVPARFSGSGSGTDFTLTINPVEANDTANYYCQQSNEDPWTFGGGTKVEIKR
As for B4, in experiment [6], the binding result is “binds”.

B5: fully humanized mAb13.2 (h13.2v2) (antibody, human IgG1, kappa, V domains shown)
VH: EVQLVESGGGLVQPGGSLRLSCAASGFTFISYAMSWVRQAPGKGLEWVASISSGGNTYYPDSVKGRFTISRDNAKNSLYLQMNSLRAEDTAVYYCARLDGYYFGFAYWGQGTLVTVSS
VL: DIQMTQSPSSLSASVGDRVTITCKASESVDNYGKSLMHWYQQKPGKAPKLLIYRASNLESGVPSRFSGSGSGTDFTLTISSLQPEDFATYYCQQSNEDPWTFGGGTKVEIKR
notes: Human IgG1 mutated (L234A/G237A), human kappa; also called hu13.2 V2; biotinylated h13.2v2
Take B5: in [8], the Ka turned out to be 9.3e+09 M⁻¹ and the Kd was 110 pM. In addition, the binding result in experiment [9] is reported as “binds”.

The record behind these values is patent US20060063228A1 (Pfizer, published 2006).
